Measurements as given in patent US20030073818A1 (MEDICAL COLLEGE OF GEORGIA RESEARCH INSTITUTE, published 2003).

B1: Calcyon:GAL4 AD fusion protein (encoded by pACTCalcyon) (other, not shown: large carriers)
chain: MVKLGCSFSGKPGKDPGDQDGAAMDSVPLISPLDISQLQPPLPDQVVIKTQTEYQLSSPDQQNFPDLEGQRLNCSHPEEGRRLPTARMIAFAMALLGCVLIMYKAIWYDQFTCPDGFLLRHKICTPLTLEMYYTEMDPERHRSILAAIGAYPLSRKHGTETPAAWGDGYRAAKEERKGPTQAGAAAAATEPPGKPSAKAEKEAARKAAGSAAPPPAQ
notes: Library clone from a human brain cDNA:GAL4 AD library; The 936 bp insert holds the whole 217 residue ORF; also called pACTP24; clone K37
B2: GAL4 Activation Domain (AD) protein encoded on the vector pGAD424 (other, yeast, UniProt P04386 768-881, looked up)
chain: ANFNQSGNIADSSLSFTFTNSSNGPNLITTQTNSQALSQPIASSNVHDNFMNNEITASKIDDGNNSKPLSPGWTDQTAYNAFGITTGMFNTTTMDDVYNYLFDDEDTPPNPKKE
B3: D1 receptor:GAL4 binding domain fusion protein pGBTD1421-435 (other, yeast;human, UniProt P04386 1-147, looked up)
chain: MKLLSSIEQACDICRLKKLKCSKEKPKCAKCLKNNWECRYSPKTKRSPLTRAHLTEVESRLERLEQLFLLIFPREDLDMILKMDSLQDIKALLTGLFVQDNVNKDAVTDRLASVETDMPLTLRQHRISATSSSEESSNKGQRQLTVSSVILDYDTDVSLEKI

Legend:
[1] = target: T1, D1/GAL4 BD fusion protein (hD1 receptor residues 365-446 fused to the GAL4 DNA binding domain, pGBTD1) (yeast; human, UniProt P04386 1-147; P21728 365-446); test: yeast two-hybrid
T1 construct: D1 segment is at the 3' end of the GAL4 BD open reading frame; also called pGBTD1365-446; D1:GAL4 fusion protein

[2] = target: T1, D1/GAL4 BD fusion protein (hD1 receptor …); test: yeast two-hybrid, X-Gal colony filter assay
[3] = target: B1; test: yeast two-hybrid

**Q.** Does B1 bind [1]?
**A.** binds

**Q.** Does B2 bind [2]?
**A.** no binding

**Q.** Does B3 bind [3]?
**A.** binds
